Patent publication US20250027071A1
Where two headings read alike, the source gives them in different places.

B1: truncated human wild-type Lipocalin-type prostaglandin D synthase (L-PGDS) (enzyme, UniProt P41222 23-190, looked up)
Prostaglandin-H2 D-isomerase: APEAQVSVQPNFQQDKFLGRWFSAGLASNSSWLREKKAALSMCKSVVAPATDGGLNLTSTFLRKNQCETRTMLLQPAGSLGSYSYRSPHWGSTYSVSVVETDYDQYALLYSQGSKGPGEDFRMATLYSRTQTPRAELKEKFTAFCKAQGFTEDTIVFLPQTDKCMTEQ
modifications: C-terminal His6 tag

Legend:
[1] = system: TGFBIp G623R peptide (23-amino acid peptide from the 4th FAS1 domain of TGFBIp with the substitution G623R)
Aβ (1-40) peptide [2] = system: Aβ (1-40) peptide
[3] = target: TGFBIp G623R peptide (23-amino acid peptide from the 4th FAS1 domain of TGFBIp with the substitution G623R); test: cell-based or functional assay
Aβ (1-40) peptide [4] = test: cell-based or functional assay
[5] = target: TGFBIp G623R peptide (23-amino acid peptide from the 4th FAS1 domain of TGFBIp with the substitution G623R); test: cell-based or functional assay; remark: listed apart in the source

Row | Molecule | ThT fluorescence relative to untreated G623R fibrils after 48 h (disaggregation assay, 10 µM L-PGDS : 50 µM fibrils) [1] | ThT disaggregation assay of mature Aβ (1-40) fibrils, 24 h (Aβ (1-40) peptide [2]) | ThT fluorescence intensity relative to the G623R control after 48 h (fibrillation inhibition assay, 10 µM L-PGDS : 50 µM monomeric peptide) [3] | further results
1 | RA L-PGDS (K58R+C65A double mutant of truncated L-PGDS) | 72.78%±20.42% (SD) | significant (p<0.05) retention of disaggregation activity across all L-PGDS mutants after 24 h of incubation |  | ThT assay of Tau VK26 aggregation (100 µM peptide with 5 µM or 10 µM RA L-PGDS) (Tau peptide VK26): RA L-PGDS almost completely inhibited the aggregation of the Tau protein; fibril length from TEM micrographs after disaggregation treatment [1]: RA-L-PGDS treatment did indeed produce shorter fibrils as opposed to WT L-PGDS
2 | C65A L-PGDS (C65A single mutant of truncated L-PGDS) (enzyme) |  |  | 102% | 
3 | RA L-PGDS (K58R+C65A double mutant of truncated L-PGDS) (enzyme) |  |  | 51.4% | ThT fluorescence relative to Aβ (1-40) control (inhibitory assay, 24 h) (Aβ (1-40) peptide [4]): 96.1%
4 | C65A L-PGDS (C65A single mutant of truncated L-PGDS) | 70.56%±8.18% (SD) | significant (p<0.05) retention of disaggregation activity across all L-PGDS mutants after 24 h of incubation |  | 
5 | B1 | 68.78%±18.20% (SD) | significant (p<0.05) retention of disaggregation activity across all L-PGDS mutants after 24 h of incubation |  | ThT fluorescence intensity relative to the G623R control after 48 h (fibrillation inhibition assay, 10 µM L-PGDS : 50 µM monomeric peptide) [5]: 52.5%
